{
  "source": "patent US9441018B2",
  "about": "“Gene from tidal flat metagenome and a novel protein displaying both phospholipase and lipase activities” (KOREA RESEARCH INSTITUTE OF BIOSCIENCE AND BIOTECHNOLOGY, priority 2011, dated 2016)",
  "molecules": {"B1": {"name": "MPIaG: catalytic domain of PlaG, SEQ. ID. NO: 5, protein having both phospholipase and lipase activities, from tidal flat metagenome (protein)", "chain": "LNQSDYEKAIDYGKLSAQAYDWDDYAAAHVGMGFFANIDDIKATDFATPNYVEVQSVGGYIDWWGTDGLDFKVFQNTETDDLVVAYKGTEPLSPVDWVADAEQIFGNSEQYQKAVDFARDLSAQVEQYNVQNGLTGDAAMQLSFTGHSLGGGLATASALATGREAMAFDAAGLSQGTINNLGLDIRHASKITNFNVKGDWLSDHNKQMDDTTLGSELAGIVPETKQYGNTYWLEGINDIADFGGWLVPDNNMAVDFAKSILNHAWHVYVYMLENDKFL", "modifications": "phospholipase/lipase MPlaG AA"}},
  "key": {"[1]": {"assay": "Clear zone on solid medium supplemented with tricaprylin emulsion (lipase activity)", "type": "biochemical", "conditions": "solid nutritive medium", "from_the_text": "When tricaprylin is decomposed by lipase, clear zone is formed. So, the colonies forming such clear zone were selected.\n(§1) The recombinant plasmid pFosPlaG derived from the metagenome library was isolated in the solid nutritive medium supplemented with tricaprylin emulsion which has been widely used for the isolation/confirmation of lipase gene. To investigate the phospholipase activity of the gene, the purified phospholipase/lipase MPIaG was loaded on the solid medium supplemented with phosphatydilcholine emulsion [0.5% (w/v) phosphatydilcholine, 0.5% (w/v) taurocholic acid, 20 mM CaCl2], followed by observing clear zone to confirm the activity."}, "[2]": {"assay": "Clear zone on solid medium supplemented with phosphatydilcholine emulsion (phospholipase activity)", "type": "biochemical", "conditions": "0.5% phosphatydilcholine, 0.5% taurocholic acid, 20 mM CaCl2", "protocol": "as §1"}, "[3]": {"assay": "Substrate specificity to various phospholipids, clear zone on solid media with phospholipid emulsions", "type": "biochemical", "protocol": "To investigate substrate specificity to various phospholipids, the purified phospholipase/lipase MPIaG was added to the solid media respectively supplemented with various phospholipid emulsions. Then, the activity over phospholipid was investigated by comparing the size of clear zone. The phospholipid emulsion was composed of 0.5% (v/v) phospholipid substrate, 0.5% (w/v) taurocholic acid, and 20 mM CaCl2. The substrates used herein were phosphatydilcholine (PC, 99% purity), phosphatidylethanolamine (PE, 97% purity), phosphatidylserine (PS, 97% purity), phosphatidylinositol (PI, 98% purity), phosphatidylglycerol (PG, 99% purity), and phosphatidic acid (PA, 98% purity)."}, "[4]": {"assay": "pH-stat / pH titration of released fatty acid (hydrolysis of triacylglyceride, olive oil, phosphatidylcholine)", "type": "biochemical", "conditions": "for specific enzyme activity: pH 8.0, pH titrator", "protocol": "(§2) First method was pH-stat.\nThe activity of MPIaG to hydrolyze triacylglyceride, olive oil, and phosphatidylcholine was measured by titrating free fatty acid using pH titrator (842 Tirando, Metrohm). By adding 10 mM NaOH solution, pH of the substrate emulsion was regulated to 8.0. Then, a proper amount of enzyme solution was added thereto. Excretion rate of fatty acid was measured by using pH titrator for 5 minutes. […] To exclude the non-enzymatic hydrolysis value of the substrates, the activity was measured without enzyme addition for every measurement under different conditions, which would be the control reaction.\nTo further investigate specificity to substrate each having different carbon length, pH titration was performed with triacylglycerides such as tributyrin (C4), tricaprylin (C8), tricaprin (C10), trilaurin (C12), tripalmitin (C16), and triolein (C18:1)."}, "[5]": {"assay": "Spectrophotometric assay with para-nitrophenyl ester substrate", "type": "biochemical", "protocol": "as §2\n(§3) To investigate the enzyme activity over pH, the activities were measured in different pH buffers. […] After staying at different pH for 180 minutes, the remaining activity was measured. As a result, the enzyme activity was maintained stably in the pH range of 5˜10 (FIG. 5). Phospholipase and lipase activity over temperature was also investigated. […] The enzyme activity was still observed at 5° C. (39% of maximum activity). When the temperature was raised more than the optimum activity temperature above, the activity was decreased rapidly (FIG. 6). In addition, melting temperature was also investigated by using differential scanning calorimetry (DSC). As a result, the melting temperature was 38.5° C. (FIG. 7).\nSpectrophotometric assay was also performed at room temperature to investigate the activity of MPIaG to para-nitrophenyl ester with various carbon chain lengths, the synthetic substrate. At this experiment, para-nitrophenyl butyrate (C4), para-nitrophenyl caprylate (C8), para-nitrophenyl caprate (C10), para-nitrophenyl laurate (C12), para-nitrophenyl palmitate (C16), and para-nitrophenyl stearate (C18) were used as substrates for the comparison of the activity. 5 mM Ca^2+ was added to the reaction solution. The reaction product para-nitrophenol was continuously measured for 5 minutes at OD450 using DU800 spectrophotometer (Beckman). To exclude the non-enzymatic hydrolysis value of the substrates, the activity was measured without enzyme for every measurement under different conditions, which would be the control reaction."}, "[6]": {"assay": "Melting temperature by differential scanning calorimetry (DSC)", "type": "physicochemical", "protocol": "as §3\nSo, it was expected that the structural stability was increased by calcium ion (FIG. 7)."}, "[7]": {"assay": "LC-MS of phosphatidylcholine hydrolysis products (chain length and site specificity)", "type": "biochemical", "protocol": "Specificity of MPIaG over the location and chain length of phospholipid was investigated. To do so, phosphatydilcholine with different carbon chain lengths (C6, C7, C8, and C14) and 1-oleoly-2-palmitoyl-phosphatidylcholine (OPPC) were used. The purified MPIaG was added to 50 mM tris buffer (pH 8.0) containing 5 mM CaCl2 and 150 mM NaCl, followed by enzyme reaction along with 1 mM substrate for 12 hours at 25° C. The reaction product was analyzed by liquid chromatography mass spectrometry (LC-MS) using Finnigan LCQ. Advantage MAX ion trap mass spectrometer (Thermo Fisher Scientific) was equipped with electrospray ionization source. HPLC isolation was performed with HILIC guard column (4×2.0 mm, Phenomenex) and Kinetex HILIC column (2.6 μm, 2.1×100 mm, Phenomenex). The moving phase A was 10 mM ammonium formate whose pH was regulated as 3.0 with formic acid. The moving phase B was acetonitrile. Gradient elution was performed at the flow rate of 0.2 ml/min as follows: 0˜10 min., 10%˜40% A (linear gradient); 10˜20 min., 70% A (isocratic). Column temperature was room temperature, and the injection volume was 10 μL. Mass spectra were obtained from m/z in the negative ion mode 100˜1200 at the maximum ion injection time of 3 microscans and 200 ms."}, "[8]": {"assay": "Expression in E. coli BL21(DE3), Ni-NTA purification and SDS-PAGE", "protocol": "The E. coli BL21(DE3)/pET22b(+)-MPIaG constructed in Example 4 was cultured in a liquid nutritive medium [1% (w/v) trypton, 0.5% (w/v) yeast extract, 0.5% (w/v) NaCl] containing ampicillin (100 μg/ml) until OD600 reached 0.6. IPTG (isopropyl-β-D-thiogalactopyranoside) was added to the culture solution (final conc.: 0.5 mM), followed by further culture for 12 hours. E. coli BL21(DE3)/pET22b(+)-MPIaG was obtained by centrifugation, which was suspended in binding buffer (50 mM Tris-HCl, pH 8, 500 mM NaCl, 10 mM imidazole). The cell suspension was lysed by ultrasonication. The cell lysate was centrifuged to obtain supernatant. The supernatant was loaded on Ni-NTA (nitriloteiacetic acid) column to elute phospholipase and lipase by imidazole gradient, followed by dialysis-concentration. To confirm the purified phospholipase/lipase MPIaG, SDS-PAGE (sodium dodecyl sulfate-polyacrylamide gel electrophoresis) was performed, followed by staining with Coomassie brilliant blue."}},
  "data": [
    {"molecule": "B1", "values": [
      {"measurement": "clear zone formation on tricaprylin emulsion medium", "setting": "[1]", "value": "formed clear zone on both solid media"},
      {"measurement": "clear zone formation on phosphatydilcholine emulsion medium", "setting": "[2]", "value": "clear zone was clearly formed"},
      {"measurement": "clear zone formation on phosphatydilcholine emulsion medium", "setting": "[2]; listed as the gene of the present invention", "value": "formed clear zone on both solid media"},
      {"measurement": "activity to phospholipid substrate (clear zone)", "setting": "[3]; substrate phosphatidic acid (PA)", "value": "did not decompose"},
      {"measurement": "activity to phospholipid substrate (clear zone)", "setting": "[3]; substrate phosphatidylethanolamine (PE)", "value": "excellent activity"},
      {"measurement": "activity to phospholipid substrate (clear zone)", "setting": "[3]; substrate phosphatidylglycerol (PG)", "value": "excellent activity"},
      {"measurement": "activity to phospholipid substrate (clear zone)", "setting": "[3]; substrate phosphatidylserine (PS)", "value": "did not decompose"},
      {"measurement": "activity to phospholipid substrate (clear zone)", "setting": "[3]; substrate phosphatydilcholine (PC)", "value": "excellent activity"},
      {"measurement": "interfacial activity", "setting": "[4]; as the concentration of tributyrin increased", "value": "showed interfacial activity"},
      {"measurement": "specific activity by pH-stat", "setting": "[4]; substrate Olive oil", "value": "114.8 ± 11.3"},
      {"measurement": "specific activity by pH-stat", "setting": "[4]; substrate Tributyrin (C4)", "value": "140 ± 6.4"},
      {"measurement": "specific activity by pH-stat", "setting": "[4]; substrate phosphatydilcholine", "value": "13.4 ± 1.5"},
      {"measurement": "specific enzyme activity", "setting": "[4]; toward olive oil", "value": "2957±144", "unit": "Umg^−1"},
      {"measurement": "specific enzyme activity", "setting": "[4]; toward phosphatidylcholine", "value": "1735±147", "unit": "Umg^−1"},
      {"measurement": "substrate chain-length preference", "setting": "[4]; triglycerides C4-C18:1, pH titration", "value": "triglyceride having short acyl straight chain"},
      {"measurement": "hydrolysis of triolein (C18:1)", "setting": "[4]; triolein, not degraded by esterase", "value": "decomposed triolein"},
      {"measurement": "temperature of maximum activity", "setting": "[5]", "value": 25, "unit": "°C"},
      {"measurement": "temperature up to which the enzyme is active", "setting": "[5]", "value": "up to 40 °C"},
      {"measurement": "enzyme activity, % of maximum activity", "setting": "[5]; at 5° C.", "value": 39, "unit": "%"},
      {"measurement": "pH of maximum activity", "setting": "[5]; different pH buffers", "value": 8},
      {"measurement": "substrate chain-length preference", "setting": "[5]; para-nitrophenyl esters C4-C18, 5 mM Ca^2+", "value": "para-nitrophenyl ester having long acyl straight chain"},
      {"measurement": "pH range in which enzyme activity was maintained stably", "setting": "[5]; remaining activity after 180 minutes at different pH", "value": "5˜10"},
      {"measurement": "highest activity, to para-nitrophenyl palmitate (C16)", "setting": "[5]; room temperature, 5 mM Ca^2+, reference of the fold not stated", "value": "approximately 112 times"},
      {"measurement": "specific activity compared to the full-length phospholipase/lipase PlaG", "setting": "[5]; synthetic substrate", "value": "at least two times increased specific activity"},
      {"measurement": "melting temperature", "setting": "[6]; 0 mM calcium", "value": 38.5, "unit": "°C"},
      {"measurement": "melting temperature", "setting": "[6]; 2 mM calcium ion", "value": 47.2, "unit": "°C"},
      {"measurement": "melting temperature", "setting": "[6]; 5 mM calcium ion", "value": 49.2, "unit": "°C"},
      {"measurement": "hydrolase activity of phosphatydilcholine to lysophosphatidylcholine, best substrate", "setting": "[7]; 1 mM substrate, 12 hours, 25° C., 5 mM CaCl2", "value": "highest to 1,2-Dioctanoyl-phosphatidylcholine (diC8PC)"},
      {"measurement": "hydrolysis site on OPPC (site specificity)", "setting": "[7]; OPPC, 25° C., 12 hours, LC-MS", "value": "phospholipase A1"},
      {"measurement": "product 2-hexanoyl-lysophosphatidylcholine", "setting": "[7]; diC6PC, LC-MS after reaction", "value": 10.4, "unit": "%"},
      {"measurement": "remaining substrate 1,2-dihexanoyl-phosphatidylcholine", "setting": "[7]; diC6PC, LC-MS after reaction", "value": 89.6, "unit": "%"},
      {"measurement": "product 2-heptanoyl-lysophosphatidylcholine", "setting": "[7]; diC7PC, LC-MS after reaction", "value": 49.5, "unit": "%"},
      {"measurement": "remaining substrate 1,2-diheptanoyl-phosphatidylcholine", "setting": "[7]; diC7PC, LC-MS after reaction", "value": 50.5, "unit": "%"},
      {"measurement": "product 2-octanoyl-lysophosphatidylcholine", "setting": "[7]; diC8PC, LC-MS after reaction", "value": 50.4, "unit": "%"},
      {"measurement": "remaining substrate 1,2-dioctanoyl-phosphatidylcholine", "setting": "[7]; diC8PC, LC-MS after reaction", "value": 49.6, "unit": "%"},
      {"measurement": "product 2-myristoyl-lysophosphatidylcholine", "setting": "[7]; diC14PC, LC-MS after reaction", "value": 3.5, "unit": "%"},
      {"measurement": "remaining substrate 1,2-dimyristoyl phosphatidylcholine", "setting": "[7]; diC14PC, LC-MS after reaction", "value": 96.5, "unit": "%"},
      {"measurement": "substrate chain-length preference", "setting": "[7]; phosphatidylcholines C6, C7, C8, C14", "value": "phospholipid having medium length acyl straight chain"},
      {"measurement": "solubility of the expressed protein", "setting": "[8]", "value": "expressed in a water-soluble form"}
    ]}
  ]
}
